Experimental findings from patent US20200000897A1 (published 2020) are described below.

This experiment deals with T1, HLA-A*03:01 (human).
T1 construct: MHC class I monomer first loaded with a UV-sensitive peptide that is cleaved by UV irradiation and exchanged for the test peptide; captured on streptavidin plates; also called peptide-receptive MHC molecules
Kind of experiment: UV-ligand exchange, anti-b2m ELISA; peptide exchange yield grade (>10% +, >20% ++, >50% +++, >75% ++++). The text has this:
Candidate peptides for T cell based therapies according to the present invention were further tested for their MHC binding capacity (affinity). The individual peptide-MHC complexes were produced by UV-ligand exchange, where a UV-sensitive peptide is cleaved upon UV-irradiation and exchanged with the peptide of interest as analyzed. Only peptide candidates that can effectively bind and stabilize the peptide-receptive MHC molecules prevent dissociation of the MHC complexes. To determine the yield of the exchange reaction, an ELISA was performed based on the detection of the light chain (β2m) of stabilized MHC complexes. The assay was performed as generally described in Rodenko et al. (Rodenko et al., 2006)
96 well MAXISorp plates (NUNC) were coated over night with 2 ug/ml streptavidin in PBS at room temperature, washed 4× and blocked forl h at 37° C. in 2% BSA containing blocking buffer. Refolded HLA-A*02:01/MLA-001 monomers served as standards, covering the range of 15-500 ng/ml. Peptide-MHC monomers of the UV-exchange reaction were diluted 100-fold in blocking buffer. Samples were incubated for 1 h at 37° C., washed four times, incubated with 2 ug/ml HRP conjugated anti-β2m for 1 h at 37° C., washed again and detected with TMB solution that is stopped with […]. Absorption was measured at 450 nm.

KLETGVVKK: the peptide exchange yield is > 75%.

Regarding SLYDGFLSY, the peptide exchange yield was > 75%.

Turning to KLSLSHKK, the peptide exchange yield was 50 to 75%.

On to RVYPRPPSKTY, for which the peptide exchange yield was > 75%.

With RLSPGPRAY, the peptide exchange yield was in the range of 50 to 75%.

In the case of RLAVSTRGK, the peptide exchange yield is > 75%.

For the molecule AVAQKLLSH, the peptide exchange yield is > 75%.

Regarding ALERKFRQK, the peptide exchange yield is > 75%.

Consider KLYPTHACR, for which the peptide exchange yield was > 75%.

In the case of ILDSSLLK, the peptide exchange yield lay within 20 to 50%.

On to STLECILYK, for which the peptide exchange yield is > 75%.

Turning to KILDRVLSRY, the peptide exchange yield is > 75%.

LLYGNGPGYVLK: the peptide exchange yield was > 75%.

On to SGSTLECILYK, for which the peptide exchange yield is > 75%.

With SSLAELIAK, the peptide exchange yield lay in the range of 20 to 50%.

For the molecule KIFQGQINK, the peptide exchange yield is > 75%.

RVWLGKHYK: the peptide exchange yield is > 75%.

AVYNYPEGAAY: the peptide exchange yield is > 75%.

With QLGYQAAVLK, the peptide exchange yield lay in the range of 50 to 75%.

AVIGALLAVGATK gave a peptide exchange yield of 50 to 75%.

For ALPRQAFHSK, the peptide exchange yield is > 75%.

As for HAFFPKTHR, the peptide exchange yield is > 75%.

As for SVLDKLLFH, the peptide exchange yield was > 75%.

Turning to RSNPYFQNK, the peptide exchange yield was > 75%.

For the molecule RLPLRVVKH, the peptide exchange yield was > 75%.

As for KLFTSVFGVGLK, the peptide exchange yield is > 75%.

On to LLDAEPPILY, for which the peptide exchange yield lay within 10 to 20%.

On to VAFIPLSNK, for which the peptide exchange yield is > 75%.

In the case of VSLGTPIMK, the peptide exchange yield lay within 50 to 75%.

Consider TMWQIPQEFVK, for which the peptide exchange yield is > 75%.

Turning to KTWAHCMSY, the peptide exchange yield was > 75%.

Regarding RLFPGLYLGY, the peptide exchange yield was 50 to 75%.

In the case of RSYVPLAH, the peptide exchange yield is > 75%.

Molecule RVSSVKLISK showed a peptide exchange yield of 50 to 75%.

On to KIWQNLRLK, for which the peptide exchange yield is 50 to 75%.

Regarding GISNPITTSK, the peptide exchange yield is > 75%.

Take RVYPRPPSK: the peptide exchange yield was > 75%.

As to EGLFLLGCVK, the peptide exchange yield lay within 50 to 75%.

Turning to KVMPKQTWK, the peptide exchange yield fell in the range of 50 to 75%.

For the molecule KTGWFTLLY, the peptide exchange yield is > 75%.

Molecule LLPTVLIKK yielded a peptide exchange yield of 50 to 75%.

In the case of AVCGGVLVH, the peptide exchange yield is > 75%.

With KVLSILSRLK, the peptide exchange yield was in the range of 50 to 75%.

Take RTIDRSVFK: the peptide exchange yield is > 75%.

Regarding RLYEMILQR, the peptide exchange yield is > 75%.

For RVYEGDGRNSLK, the peptide exchange yield fell in the range of 50 to 75%.

Molecule KAFNQSSIFTK showed a peptide exchange yield of 50 to 75%.

IVAFIPLSNK: the peptide exchange yield is > 75%.

In turn, QVRDTLKIVFK came in with a peptide exchange yield of 50 to 75%.
